Numbered stars: 1 amine (or outer) side, 2 acyl side, 3 side chain; on linkers, the order of the positions; unused ones are H or OH. Bridge positions count the residues as written; N and C are the ends. Side chains are listed from the residue outwards. Ends that are not written are not given here. * marks the point of attachment. C20 diacid = O=C(O)CCCCCCCCCCCCCCCCCCC(=O)*; γGlu = O=C(O)[C@H](CCC(=O)[*:2])N[*:1]; AEEA = NCCOCCOCC(=O)O
Columns and labels:
rat calcitonin receptor [1] = biological target: T1, rat calcitonin receptor (rat, UniProt P32214 25-516); assay: SPA competition with 125I-calcitonin, membranes with rat calcitonin receptor (Assay VIII)
T1 construct: whole, on cells; Used as membranes prepared from the transfected cells; also called rCTR; rCT
T1 sequence (looked up): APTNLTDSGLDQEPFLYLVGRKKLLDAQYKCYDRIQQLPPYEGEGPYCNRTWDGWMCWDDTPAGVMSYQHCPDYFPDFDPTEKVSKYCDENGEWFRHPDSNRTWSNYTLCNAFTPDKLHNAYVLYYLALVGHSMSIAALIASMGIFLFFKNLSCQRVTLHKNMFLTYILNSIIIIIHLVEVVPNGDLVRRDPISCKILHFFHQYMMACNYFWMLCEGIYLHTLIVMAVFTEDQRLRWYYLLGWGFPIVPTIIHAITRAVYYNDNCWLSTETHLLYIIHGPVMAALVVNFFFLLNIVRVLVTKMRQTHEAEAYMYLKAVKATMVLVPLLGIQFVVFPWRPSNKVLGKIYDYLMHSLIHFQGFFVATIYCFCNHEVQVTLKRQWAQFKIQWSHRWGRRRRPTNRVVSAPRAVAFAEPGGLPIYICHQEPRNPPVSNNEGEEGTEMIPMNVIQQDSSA

rat calcitonin receptor [2] = biological target: T1, rat calcitonin receptor; assay: ratio of binding IC50 at rat calcitonin receptor to IC50 at rat amylin receptor (reference)
[3] = biological target: T2, human calcitonin receptor (human, UniProt P30988 25-474); assay: ratio of binding IC50 at human calcitonin receptor to IC50 at human amylin receptor (reference)
T2 construct: whole, on cells; Used as membranes prepared from the transfected cells; also called hCTR; hCT
T2 sequence (looked up): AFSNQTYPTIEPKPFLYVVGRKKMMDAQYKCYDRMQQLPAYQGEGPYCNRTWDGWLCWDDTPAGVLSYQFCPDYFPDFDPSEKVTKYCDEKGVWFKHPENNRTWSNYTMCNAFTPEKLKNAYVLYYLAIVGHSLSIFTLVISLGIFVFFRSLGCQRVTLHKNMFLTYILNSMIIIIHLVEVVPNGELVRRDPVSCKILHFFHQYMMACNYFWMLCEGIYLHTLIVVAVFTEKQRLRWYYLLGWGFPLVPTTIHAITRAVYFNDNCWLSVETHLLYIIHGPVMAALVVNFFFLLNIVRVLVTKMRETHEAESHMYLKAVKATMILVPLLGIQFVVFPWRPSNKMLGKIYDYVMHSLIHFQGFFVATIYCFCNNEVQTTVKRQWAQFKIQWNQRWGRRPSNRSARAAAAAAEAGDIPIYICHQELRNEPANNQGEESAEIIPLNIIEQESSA
Procedure, shortened: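 Competition binding by SPA uses membrane preparations (35 ng/μL final) in pH 7.4 Hepes buffer with 1 mM CaCl2 and 5 mM MgCl₂. Incubation lasts 120 min at 25° C, and IC₅₀ comes from one-site fitting.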

[4] = biological target: T3, human amylin receptor (amylin 3(a) receptor: human calcitonin receptor co-expressed with RAMP-3) (human, UniProt P30988 25-474; O60896 24-148, limits assumed); assay: cell-based or functional assay
T3 sequence (looked up) 1: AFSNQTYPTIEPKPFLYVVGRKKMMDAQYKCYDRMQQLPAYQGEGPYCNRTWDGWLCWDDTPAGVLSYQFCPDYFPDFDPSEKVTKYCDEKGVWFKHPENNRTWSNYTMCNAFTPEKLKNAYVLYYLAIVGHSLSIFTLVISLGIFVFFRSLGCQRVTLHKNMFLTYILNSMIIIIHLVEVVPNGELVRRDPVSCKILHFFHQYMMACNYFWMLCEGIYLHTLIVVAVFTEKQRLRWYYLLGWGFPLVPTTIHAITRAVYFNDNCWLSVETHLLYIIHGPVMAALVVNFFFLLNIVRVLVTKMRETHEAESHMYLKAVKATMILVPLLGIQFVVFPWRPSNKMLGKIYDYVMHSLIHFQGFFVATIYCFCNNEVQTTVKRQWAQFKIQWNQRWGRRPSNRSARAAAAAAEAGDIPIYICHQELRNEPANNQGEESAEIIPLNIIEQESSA
T3 sequence (looked up) 2: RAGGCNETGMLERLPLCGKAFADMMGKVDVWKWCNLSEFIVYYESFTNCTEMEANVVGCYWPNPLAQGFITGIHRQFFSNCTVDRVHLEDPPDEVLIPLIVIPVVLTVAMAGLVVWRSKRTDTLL

[5] = biological target: T4, human calcitonin receptor (human, UniProt P30988 25-474); assay: cell-based or functional assay
T4 sequence (looked up): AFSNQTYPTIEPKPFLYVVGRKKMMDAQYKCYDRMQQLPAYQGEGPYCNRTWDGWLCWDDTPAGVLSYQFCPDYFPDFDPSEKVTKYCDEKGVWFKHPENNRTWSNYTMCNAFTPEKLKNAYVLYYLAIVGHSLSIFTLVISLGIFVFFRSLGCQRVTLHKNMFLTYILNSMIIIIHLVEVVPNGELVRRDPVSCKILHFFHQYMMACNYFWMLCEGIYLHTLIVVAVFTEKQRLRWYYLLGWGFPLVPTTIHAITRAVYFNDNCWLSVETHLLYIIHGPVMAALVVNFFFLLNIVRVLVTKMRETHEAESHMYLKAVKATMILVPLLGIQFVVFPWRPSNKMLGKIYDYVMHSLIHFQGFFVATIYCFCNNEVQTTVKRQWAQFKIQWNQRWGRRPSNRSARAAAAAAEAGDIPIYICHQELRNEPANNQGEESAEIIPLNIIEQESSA

Row | Binder | IC50 (rat calcitonin receptor [1]) | Ratio rCT/rAmylin binding (rat calcitonin receptor [2]) | Ratio hCT/hAmylin binding [3] | hAmylin-R funct. EC50 [4] | Ratio hCT/hAmylin funct. (hCTR EC50 against hAmylin-R EC50) [5] | hCTR funct. EC50 [5]
1 | K([γGlu-C20 diacid])CNTATCATQRLAHFLRHSSPNFGAIPSSTNVGSNTY-NH2 (disulfide 2-7; N-terminus assumed; SMILES CC[C@H](C)[C@H](NC(=O)[C@H](C)NC(=O)CNC(=O)[C@H](Cc1ccccc1)NC(=O)[C@H](CC(N)=O)NC(=O)[C@@H]1CCCN1C(=O)[C@H](CO)NC(=O)[C@H](CO)NC(=O)[C@H](Cc1c[nH]cn1)NC(=O)[C@H](CCCNC(=N)N)NC(=O)[C@H](CC(C)C)NC(=O)[C@H](Cc1ccccc1)NC(=O)[C@H](Cc1c[nH]cn1)NC(=O)[C@H](C)NC(=O)[C@H](CC(C)C)NC(=O)[C@H](CCCNC(=N)N)NC(=O)[C@H](CCC(N)=O)NC(=O)[C@@H](NC(=O)[C@H](C)NC(=O)[C@@H]1CSSC[C@H](NC(=O)[C@@H](N)CCCCNC(=O)CC[C@H](NC(=O)CCCCCCCCCCCCCCCCCCC(=O)O)C(=O)O)C(=O)N[C@@H](CC(N)=O)C(=O)N[C@@H]([C@@H](C)O)C(=O)N[C@@H](C)C(=O)N[C@@H]([C@@H](C)O)C(=O)N1)[C@@H](C)O)C(=O)N1CCC[C@H]1C(=O)N[C@@H](CO)C(=O)N[C@@H](CO)C(=O)N[C@H](C(=O)N[C@@H](CC(N)=O)C(=O)N[C@H](C(=O)NCC(=O)N[C@@H](CO)C(=O)N[C@@H](CC(N)=O)C(=O)N[C@H](C(=O)N[C@@H](Cc1ccc(O)cc1)C(N)=O)[C@@H](C)O)C(C)C)[C@@H](C)O, Analogue of human amylin; disulfide and C-terminal amide as told for h-amylin; also called compound 70) [N^ε1-[(4S)-4-carboxy-4-(19-carboxynonadecanoylamino)butanoyl]-[His14,Arg17,Pro21,Pro27]-h-amylin] | 34.2 nM | 96.5 | 60.8 | – | – | –
2 | K([AEEA-γGlu-C20 diacid])CNTATCATQRLANFLRHSSPNFGAIPSSTNVGSNTY-NH2 (disulfide 2-7; N-terminus assumed; SMILES CC[C@H](C)[C@H](NC(=O)[C@H](C)NC(=O)CNC(=O)[C@H](Cc1ccccc1)NC(=O)[C@H](CC(N)=O)NC(=O)[C@@H]1CCCN1C(=O)[C@H](CO)NC(=O)[C@H](CO)NC(=O)[C@H](Cc1c[nH]cn1)NC(=O)[C@H](CCCNC(=N)N)NC(=O)[C@H](CC(C)C)NC(=O)[C@H](Cc1ccccc1)NC(=O)[C@H](CC(N)=O)NC(=O)[C@H](C)NC(=O)[C@H](CC(C)C)NC(=O)[C@H](CCCNC(=N)N)NC(=O)[C@H](CCC(N)=O)NC(=O)[C@@H](NC(=O)[C@H](C)NC(=O)[C@@H]1CSSC[C@H](NC(=O)[C@@H](N)CCCCNC(=O)COCCOCCNC(=O)CC[C@H](NC(=O)CCCCCCCCCCCCCCCCCCC(=O)O)C(=O)O)C(=O)N[C@@H](CC(N)=O)C(=O)N[C@@H]([C@@H](C)O)C(=O)N[C@@H](C)C(=O)N[C@@H]([C@@H](C)O)C(=O)N1)[C@@H](C)O)C(=O)N1CCC[C@H]1C(=O)N[C@@H](CO)C(=O)N[C@@H](CO)C(=O)N[C@H](C(=O)N[C@@H](CC(N)=O)C(=O)N[C@H](C(=O)NCC(=O)N[C@@H](CO)C(=O)N[C@@H](CC(N)=O)C(=O)N[C@H](C(=O)N[C@@H](Cc1ccc(O)cc1)C(N)=O)[C@@H](C)O)C(C)C)[C@@H](C)O, also called compound 41) | – | – | – | 0.26 nM | 16.7 | 4.35 nM
3 | KCNTATCATQRLANFLRHSSPNFGAIPSSTNVGHNTY (alpha amino group of the N-terminal residue (Lys1) acylated with C20 diacid-gGlu; disulfide bridge Cys2-Cys7; C-terminal amide, also called compound 40) [N^α1-[(4S)-4-carboxy-4-(19-carboxynonadecanoylamino)butanoyl]-[Arg17,Pro21,Pro27,His34]-h-amylin] | – | – | – | 0.164 nM | 16.4 | –
4 | KCNTATCATQRLANFLRHSSPNFGAIPSSTNVGRNTY (alpha amino group of the N-terminal residue (Lys1) acylated with C20 diacid-gGlu; disulfide bridge Cys2-Cys7; C-terminal amide, also called compound 39) [N^α1-[(4S)-4-carboxy-4-(19-carboxynonadecanoylamino)butanoyl]-[Arg17,Pro21,Pro27,Arg34]-h-amylin] | – | – | – | 0.217 nM | 11.6 | 2.52 nM
5 | K([AEEA-C20 diacid])CNTATCATQRLAHFLRHSSPNFGAIPSSTNVGSNTY-NH2 (disulfide 2-7; N-terminus assumed; SMILES CC[C@H](C)[C@H](NC(=O)[C@H](C)NC(=O)CNC(=O)[C@H](Cc1ccccc1)NC(=O)[C@H](CC(N)=O)NC(=O)[C@@H]1CCCN1C(=O)[C@H](CO)NC(=O)[C@H](CO)NC(=O)[C@H](Cc1c[nH]cn1)NC(=O)[C@H](CCCNC(=N)N)NC(=O)[C@H](CC(C)C)NC(=O)[C@H](Cc1ccccc1)NC(=O)[C@H](Cc1c[nH]cn1)NC(=O)[C@H](C)NC(=O)[C@H](CC(C)C)NC(=O)[C@H](CCCNC(=N)N)NC(=O)[C@H](CCC(N)=O)NC(=O)[C@@H](NC(=O)[C@H](C)NC(=O)[C@@H]1CSSC[C@H](NC(=O)[C@@H](N)CCCCNC(=O)COCCOCCNC(=O)CCCCCCCCCCCCCCCCCCC(=O)O)C(=O)N[C@@H](CC(N)=O)C(=O)N[C@@H]([C@@H](C)O)C(=O)N[C@@H](C)C(=O)N[C@@H]([C@@H](C)O)C(=O)N1)[C@@H](C)O)C(=O)N1CCC[C@H]1C(=O)N[C@@H](CO)C(=O)N[C@@H](CO)C(=O)N[C@H](C(=O)N[C@@H](CC(N)=O)C(=O)N[C@H](C(=O)NCC(=O)N[C@@H](CO)C(=O)N[C@@H](CC(N)=O)C(=O)N[C@H](C(=O)N[C@@H](Cc1ccc(O)cc1)C(N)=O)[C@@H](C)O)C(C)C)[C@@H](C)O, Analogue of human amylin; disulfide and C-terminal amide as told for h-amylin; also called compound 90) [N^ε1-[2-[2-[2-(19-carboxynonadecanoylamino)ethoxy]ethoxy]acetyl]-[His14,Arg17,Pro21,Pro27]-h-amylin] | 18.2 nM | 74.1 | 42.2 | – | – | –
6 | K([γGlu-γGlu-C20 diacid])CNTATCATQRLAHFLRHSSPNFGAIPSSTNVGSNTY-NH2 (disulfide 2-7; N-terminus assumed; SMILES CC[C@H](C)[C@H](NC(=O)[C@H](C)NC(=O)CNC(=O)[C@H](Cc1ccccc1)NC(=O)[C@H](CC(N)=O)NC(=O)[C@@H]1CCCN1C(=O)[C@H](CO)NC(=O)[C@H](CO)NC(=O)[C@H](Cc1c[nH]cn1)NC(=O)[C@H](CCCNC(=N)N)NC(=O)[C@H](CC(C)C)NC(=O)[C@H](Cc1ccccc1)NC(=O)[C@H](Cc1c[nH]cn1)NC(=O)[C@H](C)NC(=O)[C@H](CC(C)C)NC(=O)[C@H](CCCNC(=N)N)NC(=O)[C@H](CCC(N)=O)NC(=O)[C@@H](NC(=O)[C@H](C)NC(=O)[C@@H]1CSSC[C@H](NC(=O)[C@@H](N)CCCCNC(=O)CC[C@H](NC(=O)CC[C@H](NC(=O)CCCCCCCCCCCCCCCCCCC(=O)O)C(=O)O)C(=O)O)C(=O)N[C@@H](CC(N)=O)C(=O)N[C@@H]([C@@H](C)O)C(=O)N[C@@H](C)C(=O)N[C@@H]([C@@H](C)O)C(=O)N1)[C@@H](C)O)C(=O)N1CCC[C@H]1C(=O)N[C@@H](CO)C(=O)N[C@@H](CO)C(=O)N[C@H](C(=O)N[C@@H](CC(N)=O)C(=O)N[C@H](C(=O)NCC(=O)N[C@@H](CO)C(=O)N[C@@H](CC(N)=O)C(=O)N[C@H](C(=O)N[C@@H](Cc1ccc(O)cc1)C(N)=O)[C@@H](C)O)C(C)C)[C@@H](C)O, Analogue of human amylin; disulfide and C-terminal amide as told for h-amylin; also called compound 92) | 104 nM | 156 | 145 | – | – | –

From patent US20140087995A1 (published 2014)
